Measurements: article PMC10244618
Where “and” joins values, the source holds several entries; their conditions need not be identical. Identical values can stand only once.

B1: NF2 (merlin) isoform 7, human, full length (507 aa, lacks exons 2-3 = isoform-1 residues 39-121; exon-16 C-terminus), P35240-4 (parent)
chain: MAGAIASRMSFSSLKRKQPKTFTVRIVTMDAEMEFNCEVKKQILDEKIYCPPEASVLLASYAVQAKYGDYDPSVHKRGFLAQEELLPKRVINLYQMTPEMWEERITAWYAEHRGRARDEAEMEYLKIAQDLEMYGVNYFAIRNKKGTELLLGVDALGLHIYDPENRLTPKISFPWNEIRNISYSDKEFTIKPLDKKIDVFKFNSSKLRVNKLILQLCIGNHDLFMRRRKADSLEVQQMKAQAREEKARKQMERQRLAREKQMREEAERTRDELERRLLQMKEEATMANEALMRSEETADLLAEKAQITEEEAKLLAQKAAEAEQEMQRIKATAIRTEEEKRLMEQKVLEAEVLALKMAEESERRAKEADQLKQDLQEAREAERRAKQKLLEIATKPTYPPMNPIPAPLPPDIPSFNLIGDSLSFDFKDTDMKRLSMEIEKEKVEYMEKSKHLQEQLNELKTEIEALKLKERETALDILHNENSDRGGSSKHNTIKKPQAQGRRPICI

Variants of: B1
Assay: reverse yeast two-hybrid deep mutational scan (rY2H-seq): NF2 isoform 7 mutant library as bait mated with wild-type prey strains; selection on medium lacking adenine for non-interacting pairs; NextSeq paired-end sequencing; enrichment vs …
Conditions: yeast diploids after mating (RBait_S3 x RPrey_S3), 30 °C, selection for reporter genes on NB agar, HIGHER = WEAKER BINDING (the opposite of display enrichments): higher = stronger loss of interaction: reverse Y2H selects yeast in which bait and prey do NOT interact (growth without adenine), so a …, hits-only table, scale: rY2H score, numbering: uniprot, sequence starts at 1
[1] = with EMILIN1 (elastin microfibril interfacer 1), Q9Y6C2, human ABL2 co-expressed as the kinase-dead K35M mutant …
[2] = with KDM1A (lysine-specific histone demethylase 1A; the table's label AOF2 is a gene synonym of KDM1A), O60341, human ABL2 co-expressed as the kinase-dead K35M mutant …
[3] = with KDM1A (lysine-specific histone demethylase 1A; the table's label AOF2 is a gene synonym of KDM1A), O60341, human tyrosine kinase ABL2 co-expressed as the active kinase …
[4] = with EMILIN1 (elastin microfibril interfacer 1), Q9Y6C2, human tyrosine kinase ABL2 co-expressed as the active kinase …
[5] = with NF2 C-terminal domain (wild type; homomeric NF2-NF2 interaction), P35240, human ABL2 co-expressed as the kinase-dead K35M mutant …, partner unresolved
[6] = with PIK3R3 (phosphatidylinositol 3-kinase regulatory subunit gamma), Q92569, human tyrosine kinase ABL2 co-expressed as the active kinase …

| Variant | enrichment [4] | further results |
| --- | --- | --- |
| E272A | – | enrichment [1]: 3.71; enrichment [2]: 2.65 |
| Y398A | – | enrichment [1]: 1.36; enrichment [3]: 3.19 |
| N402Q | 2.62 | – |
| W175A | 4.36 | enrichment [5]: 2.08 |
| V74S | 6.93 | – |
| L156W | 1.61 and 3.25 | enrichment [2]: 4.82 and 4.33; enrichment [3]: 5.87; enrichment [5]: 5.5 and 4.13; enrichment [6]: 3.91 and 3.42 |
| A381T | 1.45 | enrichment [5]: 1.6 |
| L300R | 3.24 | – |
| P98L | 1.71 | – |
| N143I | 5.68 and 2.91 | – |
| F79A | 4.71 | – |
| D299L | 3.97 and 2.17 | enrichment [2]: 3.02 and 4.36; enrichment [3]: 4.23; enrichment [5]: 3.22 |
| R383K | 2.82 | enrichment [5]: 1.66 |
| D425L | 3.06 | – |
| L151E | 15.6 | – |
| A290L | 38.6 | – |
| L315K | 4.2 | enrichment [5]: 1.46 |
| R166S | 8.73 | – |
| N416R | 3.29 | – |
| L58P | 6.14 | enrichment [2]: 7.73; enrichment [3]: 4.64 and 3.28; enrichment [5]: 2.09; enrichment [6]: 6.79 and 6.06 |
| L348K | 2.78 | enrichment [2]: 3.09 |
| M446V | 2.65 | – |

| Variant | enrichment [4] | further results |
| --- | --- | --- |
| I307L | 3.37 | enrichment [2]: 2.24 and 1.83; enrichment [3]: 4.9 |
| K229L | 1.52 | – |
| A331E | 2.11 | enrichment [5]: 1.53 |
| S73L | 1.58 and 3.38 | enrichment [5]: 3.01; enrichment [6]: 5.98 |
| I329K | 1.63 and 1.9 | enrichment [3]: 2.5; enrichment [5]: 2.98 and 2.25; enrichment [6]: 1.89 |
| L315W | 7.24 | – |
| Q317R | 1.98 | – |
| L422A | 1.78 | enrichment [2]: 2.07 |
| R166N | 2.2 | enrichment [3]: 1.82 |
| R268E | 8.98 and 8.09 | enrichment [2]: 8.2 and 3.3; enrichment [3]: 7.56; enrichment [6]: 11.6 |
| D271L | 2.2 | enrichment [2]: 4.25 |
| F415A | 1.74 | enrichment [5]: 2.73 |
| R263G | 1.44 | – |
| P407K | 2.11 | enrichment [2]: 4.15; enrichment [3]: 2.54; enrichment [6]: 2.65 |
| D299T | 1.88 | – |
| K144L | 2.68 | enrichment [3]: 3.56 |
| D484K | 2.87 | enrichment [2]: 4.88 |
| A319L | 2.38 and 3.16 | enrichment [2]: 4.6 |
| N416T | 2.76 | – |
| L417I | 8.54 | enrichment [2]: 4.11 |
| L371A | 2.9 and 1.56 | enrichment [5]: 2.88; enrichment [6]: 1.38 |
| G146A | 3.91 and 4.27 | – |

| Variant | enrichment [4] | further results |
| --- | --- | --- |
| A266K | 9.16 | enrichment [3]: 2.16 |
| L375K | 4.18 | enrichment [5]: 6.66; enrichment [6]: 5.19 |
| T336K | 4.16 | enrichment [3]: 2.26 and 6.75; enrichment [6]: 2.98 |
| S294K | 4.59 and 3.72 | enrichment [5]: 4.08 |
| E367K | 1.96 | – |
| E464L | 1.85 | – |
| T106L | 4.33 | – |
| L355E | 1.61 | enrichment [5]: 1.76 |
| A393K | 1.55 | enrichment [6]: 3.14 |
| E325T | 6.21 | enrichment [2]: 4.73 |
| E148K | 2.78 and 2.12 | enrichment [3]: 1.49 |
| A128V | 1.56 | enrichment [5]: 1.47 |
| T285L | 2.39 and 4 | enrichment [6]: 6.05 |
| R328T | 2.61 | – |
| Q324Y | 1.67 | enrichment [2]: 1.47 |
| S489E | 7.56 | – |
| E252K | 1.41 | – |
| D69K | 1.87 | enrichment [3]: 6.13 |
| L342T | 4.63 | enrichment [2]: 2.83 and 2.72 |
| L300K | 8.53 | – |
| T168A | 2.55 | enrichment [6]: 6.22 |
| L389E | 2.12 | enrichment [3]: 1.87 |

| Variant | enrichment [4] | further results |
| --- | --- | --- |
| I307Y | 2.93 | – |
| A350E | 5.83 | – |
| R335E | 2.52 | – |
| E323G | 1.92 | – |
| Q345L | 2.57 | enrichment [2]: 3.2; enrichment [3]: 2.39; enrichment [5]: 1.49 and 2.6 |
| P410K | 1.53 | enrichment [2]: 9.12 and 4.16 |
| R363E | 3.15 | enrichment [6]: 4.76 |
| R364K | 2.07 | enrichment [2]: 3.56; enrichment [5]: 2.52 |
| W175E | 6.77 | enrichment [5]: 1.97 |
| A381L | 1.87 | – |
| K170L | 4.44 | – |
| Q279E | 2.35 | enrichment [2]: 4.82 |
| R258V | 2.52 | enrichment [5]: 1.38; enrichment [6]: 1.6 |
| K460E | 6.17 | enrichment [5]: 3.55 |
| A240T | 1.45 | – |
| R335C | 2.88 | enrichment [3]: 1.78 and 2.82 |
| R471G | 1.53 | – |
| E325A | 2.68 | enrichment [2]: 3.73 |
| K395Q | 1.8 | – |
| A381V | 1.43 | enrichment [6]: 1.6 |
| K386T | 7.62 | enrichment [2]: 5.27 |
| A406Q | 2.56 | enrichment [2]: 1.87 |

| Variant | enrichment [4] | further results |
| --- | --- | --- |
| R383A | 1.5 and 2.77 | enrichment [2]: 1.83 |
| K386Q | 2.16 | – |
| T461I | 1.49 | – |
| S60F | 3.78 | – |
| G157K | 3.64 | enrichment [6]: 7.92 |
| E309A | 2.33 | – |
| E323L | 2.75 | enrichment [3]: 1.55; enrichment [5]: 3.82 |
| F426A | 1.63 | enrichment [2]: 3.99 |
| E264A | 12.8 | – |
| L371E | 3.71 | – |
| P399K | 1.52 | – |
| A381E | 1.42 | – |
| M326R | 1.39 | – |
| R248P | 1.52 | – |
| R379E | 3.11 and 8.92 | enrichment [2]: 6.74; enrichment [3]: 5.6; enrichment [5]: 1.99 |
| S73K | 2 | enrichment [6]: 3.5 and 2.86 |
| P407R | 4.09 | – |
| D476V | 5.43 | – |
| R341T | 3.59 | enrichment [2]: 2.28 |
| S483E | 1.84 | enrichment [3]: 1.8 and 1.81; enrichment [6]: 3.26 |
| Q306E | 8.86 | – |
| L390C | 5.21 and 8.08 | enrichment [2]: 6.37; enrichment [5]: 4.75; enrichment [6]: 10.7 |

| Variant | enrichment [4] | further results |
| --- | --- | --- |
| K313T | 6 | enrichment [2]: 11.8 and 11.3; enrichment [5]: 6.36 and 7.06; enrichment [6]: 9.73 and 7.27 |
| F426V | 2.88 | – |
| V209A | 5.24 | – |
| E259K | 3.41 | – |
| L314N | 18.6 | – |
| T332S | 2.08 | – |
| A107E | 6.39 | enrichment [6]: 6.23 |
| T332E | 4.23 and 3.34 | enrichment [2]: 7.44 |
| N416A | 6.7 | – |
| V56K | 3.86 | enrichment [2]: 8.67; enrichment [6]: 3.28 |
| S55L | 2.05 | – |
| G419L | 2.72 | – |
| T397L | 2.34 | – |
| H159L | 2.93 | enrichment [3]: 4.15 and 7.93; enrichment [6]: 6.72 |
| L150A | 2.56 | – |
| Q345E | 3.31 | enrichment [3]: 3.73; enrichment [6]: 3.74 |
| A406K | 2.13 | – |
| L300C | 2.3 | enrichment [5]: 2.18 |
| E391L | 2 | – |
| D162P | 2.72 | – |
| E362K | 4.17 | – |
| E382A | 1.65 | enrichment [2]: 2.37; enrichment [5]: 2.83; enrichment [6]: 3 and 1.89 |
